In the supplement of paper PMC9112550, “Optimization of the antimicrobial peptide Bac7 by deep mutational scanning” (BMC Biology, 2022):

Test system: Escherichia coli TOP10
Experiment: shrunken log2 fold change of peptide-encoding DNA abundance (4.5 h post-induction vs induction); higher = less antimicrobial activity (less host growth inhibition)
Conditions: time post-induction: 4.5 h; library: site-saturation at positions 5, 18, 19, 20
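Note: peptides expressed intracellularly from a pBAD plasmid library in pooled LB shake-flask culture, induced with 0.3% L-arabinose, DNA abundance read by NGS, three biological replicates, DESeq2 with apeglm shrinkage.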

Row | Sequence | shrunken log2 fold change
1 | RRIRIRPPRLPRPRPRPLYPPRP | -0.561
2 | RRIRERPPRLPRPRPRPGVVPRP | -0.0414
3 | RRIRQRPPRLPRPRPRPQPPPRP | 0.194
4 | RRIRYRPPRLPRPRPRPFYFPRP | -0.961
5 | RRIRVRPPRLPRPRPRPFVLPRP | -0.322
6 | RRIRGRPPRLPRPRPRPKRVPRP | 0.198
7 | RRIRCRPPRLPRPRPRPQPMPRP | -0.0366
8 | RRIRTRPPRLPRPRPRPYRKPRP | -0.0329
9 | RRIRERPPRLPRPRPRPDYHPRP | -0.486
10 | RRIRARPPRLPRPRPRPAMEPRP | 0.372
11 | RRIRNRPPRLPRPRPRPALSPRP | 0.0962
12 | RRIRFRPPRLPRPRPRPQLYPRP | -0.588
13 | RRIRMRPPRLPRPRPRPFVYPRP | -0.00869
14 | RRIRKRPPRLPRPRPRPEPDPRP | 0.877
15 | RRIRMRPPRLPRPRPRPGDQPRP | 1.13
16 | RRIRRRPPRLPRPRPRPISHPRP | -0.215
17 | RRIRVRPPRLPRPRPRPAYPPRP | -0.179
18 | RRIRIRPPRLPRPRPRPKANPRP | -0.103
19 | RRIRTRPPRLPRPRPRPTPVPRP | 0.313
20 | RRIRNRPPRLPRPRPRPKQFPRP | -0.214
21 | RRIRDRPPRLPRPRPRPVEEPRP | 0.525
22 | RRIRKRPPRLPRPRPRPVLCPRP | 0.241
23 | RRIRTRPPRLPRPRPRPNPMPRP | -0.383
24 | RRIRQRPPRLPRPRPRPGKMPRP | 0.0812
25 | RRIRARPPRLPRPRPRPPVLPRP | 0.214

Row | Sequence | shrunken log2 fold change
26 | RRIRSRPPRLPRPRPRPKDDPRP | 0.0557
27 | RRIRDRPPRLPRPRPRPHIDPRP | -0.0782
28 | RRIRQRPPRLPRPRPRPIPSPRP | -0.0138
29 | RRIRARPPRLPRPRPRPCMYPRP | -0.49
30 | RRIRIRPPRLPRPRPRPQDAPRP | -0.449
31 | RRIRYRPPRLPRPRPRPYNIPRP | -0.426
32 | RRIRCRPPRLPRPRPRPQEDPRP | -0.0835
33 | RRIRYRPPRLPRPRPRPAFHPRP | -0.518
34 | RRIRYRPPRLPRPRPRPDSSPRP | -0.0431
35 | RRIRYRPPRLPRPRPRPWIAPRP | -0.791
36 | RRIRWRPPRLPRPRPRPLCSPRP | 0.13
37 | RRIRGRPPRLPRPRPRPHCYPRP | 0.0539
38 | RRIRKRPPRLPRPRPRPICNPRP | 0.102
39 | RRIRHRPPRLPRPRPRPKCDPRP | -0.0608
40 | RRIRYRPPRLPRPRPRPSIWPRP | -1.31
41 | RRIRCRPPRLPRPRPRPDKNPRP | -0.369
42 | RRIRYRPPRLPRPRPRPGGNPRP | -0.0562
43 | RRIRMRPPRLPRPRPRPELWPRP | 3.17
44 | RRIRWRPPRLPRPRPRPPVEPRP | 0.392
45 | RRIRLRPPRLPRPRPRPQLWPRP | -0.195
46 | RRIRVRPPRLPRPRPRPKQCPRP | -0.141
47 | RRIRWRPPRLPRPRPRPIMLPRP | 0.464
48 | RRIRCRPPRLPRPRPRPVLPPRP | 2
49 | RRIRQRPPRLPRPRPRPEDFPRP | -0.0175
50 | RRIRARPPRLPRPRPRPCKRPRP | -0.0822

Row | Sequence | shrunken log2 fold change
51 | RRIRDRPPRLPRPRPRPAQPPRP | 0.278
52 | RRIRRRPPRLPRPRPRPGKMPRP | 0.0473
53 | RRIRRRPPRLPRPRPRPRPSPRP | 0.781
54 | RRIRMRPPRLPRPRPRPYHFPRP | -0.16
55 | RRIRNRPPRLPRPRPRPFAGPRP | 0.0411
56 | RRIRPRPPRLPRPRPRPAVHPRP | 0.0984
57 | RRIRVRPPRLPRPRPRPSYIPRP | -0.74
58 | RRIRCRPPRLPRPRPRPPIIPRP | -0.294
59 | RRIRRRPPRLPRPRPRPDPNPRP | 0.0237
60 | RRIRERPPRLPRPRPRPTAQPRP | 0.416
61 | RRIRNRPPRLPRPRPRPTVNPRP | -0.382
62 | RRIRPRPPRLPRPRPRPFNPPRP | -0.296
63 | RRIRIRPPRLPRPRPRPTADPRP | -0.063
64 | RRIRARPPRLPRPRPRPRGNPRP | 0.494
65 | RRIRQRPPRLPRPRPRPKPYPRP | -0.074
66 | RRIRKRPPRLPRPRPRPDRTPRP | 0.0739
67 | RRIRARPPRLPRPRPRPTIGPRP | 0.176
68 | RRIRFRPPRLPRPRPRPRHSPRP | 0.0584
69 | RRIRTRPPRLPRPRPRPISTPRP | -0.504
70 | RRIRGRPPRLPRPRPRPFVCPRP | 0.327
71 | RRIRPRPPRLPRPRPRPPHKPRP | 0.452
72 | RRIRVRPPRLPRPRPRPAYYPRP | -0.616
73 | RRIRLRPPRLPRPRPRPPHMPRP | -0.0106
74 | RRIRGRPPRLPRPRPRPQWTPRP | 0.319
75 | RRIRIRPPRLPRPRPRPDWMPRP | -0.131
